From PMC5823917, “Sumoylation regulates FMRP-mediated dendritic spine elimination and maturation” (Nature Communications, 2018)

Target: the molecule itself
Experiment: pull-down; GST-FMRP (1-160) 1 ug with 2 ug His-FMRP (1-160), 2 h at 4 °C in dimerization buffer (50 mM Tris-HCl pH 8, 150 mM NaCl, 2.5 mM MgCl2, 0.5% NP40, 0.5 mM DTT); glutathione beads, five washes; free GST as control

B1: FMRP (1-160 aa), N-terminal domain, GST-tagged and His-tagged copies (domain or fragment)
chain: not shown
notes: FMRP, N-terminal domain, residues 1-160; Two differently tagged copies of one fragment: GST-FMRP (1-160) held on glutathione beads and His-FMRP (1-160) in solution; each copy carries one tag, not both; also called GST-FMRP (1-160); His-FMRP (1-160 aa); source: E. coli BL21(DE3), purified (glutathione gel for GST-FMRP, Nickel resin for His-FMRP)
binding result: binds
